Publication PMC8602850

Target: gC1qR-ΔΔ, gC1qR deletion mutant that removed the flexible, negatively charged loops (UniProt Q07021)
Test: SPR; gC1qR-WT or gC1qR-ΔΔ immobilised; two-fold dilution series of analyte injected; reference-corrected sensorgrams fit to kinetic models; apparent KD

Sequence of gC1qR-ΔΔ, gC1qR deletion mutant that removed the flexible, negatively charged loops (Q07021 74-282, stated change not applied): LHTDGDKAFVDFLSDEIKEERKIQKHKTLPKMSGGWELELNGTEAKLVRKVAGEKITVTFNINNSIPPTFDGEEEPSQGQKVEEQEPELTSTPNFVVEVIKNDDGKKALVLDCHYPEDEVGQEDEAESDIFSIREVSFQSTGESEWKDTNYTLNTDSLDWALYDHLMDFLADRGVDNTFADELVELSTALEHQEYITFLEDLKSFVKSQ

SARS-CoV-2 Membrane-Envelope fusion protein, recombinant
Kd: 360 nM
